# According to patent US20170037124A1 (Regeneron, published 2017):
# T1: peptide from the N-terminal coiled-coil region of human ANGPTL3 (hANGPTL3 peptide, SEQ ID NO: 338) (human)
# T1 construct: also called hANGPTL3 shift peptide
# T1 peptide: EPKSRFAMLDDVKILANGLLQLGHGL
# T2: human ANGPTL8 peptide (hANGPTL8 peptide, SEQ ID NO: 337) (human)
# T2 construct: also called N-terminal region ANGPTL8 peptide
# T2 peptide: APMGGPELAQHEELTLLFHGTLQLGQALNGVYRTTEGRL
# T3: peptide from the N-terminal coiled-coil region of human ANGPTL4 (hANGPTL4 peptide, SEQ ID NO: 339) (human)
# T3 peptide: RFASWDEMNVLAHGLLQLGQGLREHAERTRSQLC
# T4: human ANGPTL8 expressed with C-terminal mouse IgG2a Fc tag (hANGPTL8-mFc; SEQ ID NO: 340) (human)
# T4 construct: also called Angiopoietin-like protein 8
# T4 chain: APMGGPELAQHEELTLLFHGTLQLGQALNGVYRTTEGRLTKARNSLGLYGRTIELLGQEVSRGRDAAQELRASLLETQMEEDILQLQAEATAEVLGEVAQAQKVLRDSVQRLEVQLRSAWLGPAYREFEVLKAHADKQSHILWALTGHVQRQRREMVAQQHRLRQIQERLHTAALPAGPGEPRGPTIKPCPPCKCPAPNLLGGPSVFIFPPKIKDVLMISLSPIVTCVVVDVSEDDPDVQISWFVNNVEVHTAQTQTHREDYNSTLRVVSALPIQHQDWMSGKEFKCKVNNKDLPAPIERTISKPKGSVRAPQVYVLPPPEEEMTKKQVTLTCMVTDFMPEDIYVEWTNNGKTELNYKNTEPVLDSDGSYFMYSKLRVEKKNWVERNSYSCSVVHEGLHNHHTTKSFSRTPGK
# T5: monkey ANGPTL8 expressed with C-terminal mouse IgG2a Fc tag (MfANGPTL8-mFc; SEQ ID NO: 341) (cynomolgus monkey)
# T5 construct: also called cynomolgus monkey ANGPTL8
# T5 chain: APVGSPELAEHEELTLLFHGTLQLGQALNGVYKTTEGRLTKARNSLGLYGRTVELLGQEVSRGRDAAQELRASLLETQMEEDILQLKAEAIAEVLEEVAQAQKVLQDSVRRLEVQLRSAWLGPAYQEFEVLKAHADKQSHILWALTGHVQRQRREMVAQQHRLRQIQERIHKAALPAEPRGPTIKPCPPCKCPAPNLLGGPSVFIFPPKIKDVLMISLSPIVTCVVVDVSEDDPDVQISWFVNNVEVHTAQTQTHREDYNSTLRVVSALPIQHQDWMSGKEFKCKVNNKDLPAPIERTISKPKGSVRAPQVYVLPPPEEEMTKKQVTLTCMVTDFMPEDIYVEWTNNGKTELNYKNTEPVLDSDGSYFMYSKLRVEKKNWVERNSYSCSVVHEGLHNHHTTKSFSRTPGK
# B1: H4H15369P2 (antibody, human IgG4, V domains shown)
# VH: EVQLVESGGGLVQPGGSLRLSCVGTGFTFSNYAMSWVRQAPGKGLEWVSGISGRSSGTFYADSVKGRFTISRDNSQNTLYLQMNSLGAEDTAVYYCAKVSRYNWDYVPFDFWGQGTLVTVSS
# VL: not shown
# notes: H4H prefix: human IgG4 Fc
# B2: H4H15330P (antibody, human IgG4, V domains shown)
# VH: QVQLVESGGGLVKPGGSLRLSCAASGFTFSDYYMSWIRQAPGKGLEWISHISGSGRTTHYADSMKGRFTISRDNAKNSLYLQMNSLRAEDTAVYYCVREGGFNWNYEGTFDIWGQGTMVTVSS
# VL: DIVMTQTPLSSPVTLGQPASISCRSSQSLLHSDQNTYLSWLHQRPGQPPRLLIYKISNRFSGVPDRFSGSGAGTDFTLKISRVEAEDVGIYYCMQGTQFPLTFGGGTKVEIK
# notes: H4H prefix: human IgG4 Fc
# B3: H4H15321P (antibody, human IgG4, V domains shown)
# VH: EVQLVESGGGLVQPGGSLRLSCAASGFTFSSYAMSWVRQAPGKGLEWVSAITGSGGRTYYADSVKGRFTISRDNAKNTLYLQMNSLRAEDTAVYYCAKNFPFDYWGQGTLVTVSS
# VL: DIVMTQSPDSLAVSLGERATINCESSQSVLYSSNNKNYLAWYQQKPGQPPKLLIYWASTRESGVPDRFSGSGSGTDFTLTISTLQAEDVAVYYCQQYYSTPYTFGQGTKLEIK
# notes: H4H prefix: human IgG4 Fc
# B4: H4H15362P2 (antibody, human IgG4, V domains shown)
# VH: QVQLVESGGGVVQPGRSLRLSCAASGFTFSSYGMHWVRQAPGKGLEWVAVIWYDGSNKYYADSVKGRFTISRDNSKNTLYLQMNSLRAEDTAVYYCARDWVRFLEWFPHFDYWGQGTLVTVSS
# VL: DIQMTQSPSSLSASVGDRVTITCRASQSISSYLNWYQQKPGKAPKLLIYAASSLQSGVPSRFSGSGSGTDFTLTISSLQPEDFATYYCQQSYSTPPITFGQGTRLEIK
# notes: H4H prefix: human IgG4 Fc
# B5: H4H15334P (antibody, human IgG4, V domains shown)
# VH: QVQLQESGPGLVKPSQTLSLTCTVSGGSINSGGYYWNWIRQHPGKGLEWIGYIYYSGSTYFNPSLKSRVTISIDTSKNQFSLKLSSVTAADTAVYYCAREGIYAFDYWGQGTLVTVSS
# VL: DIQMTQSPSSLSASVGDRVTITCRASQGIRNDLGWYQQKPGKAPKRLIYSASSLQSGVPSRFGGSGSGTEFTLTISSLQPEDFATYYCLQHNSYPWTFGQGTKVEIK
# notes: H4H prefix: human IgG4 Fc
# Target: T1, peptide from the N-terminal coiled-coil …
# Assay: SPR, captured mAb, 500 nM peptide, 25C
# Protocol: (§1) The assay utilized a format where ANGPTL8 antibodies were captured on the sensor surface and peptides were injected over the antibody surface. Peptides from the N-terminal coiled-coil region of human ANGPTL3 (hANGPTL3 peptide, SEQ ID NO: 338) and human ANGPTL4 (hANGPTL4 peptide, SEQ ID NO: 339) were also included as controls. Also included was a control antibody (H4H268P from US2011/0159015A1) that binds to the ANGPTL4 peptide and a negative isotype control antibody. All binding studies were performed in 10 mM HEPES pH 7.4, 150 mM NaCl, 3 mM EDTA, and 0.05% v/v Surfactant Tween-20 (HBS-ET running buffer) at 25° C. The HCA sensor surface was derivatized via amine coupling to a monoclonal mouse anti-human Fc antibody (GE, # BR-1008-39), and to this surface was captured approximately 1000 RU of each ANGPTL8 antibody or control antibody. Peptide stock solutions were diluted in HBS-ET running buffer to 500 nM and injected over the antibody-captured surfaces for 4 minutes at a flow rate of 30 μL/minute followed by the dissociation of bound peptide in HBS-ET running buffer for 10 minutes.
# (§2) Dissociative half-lives (t½) were calculated from kd as: […]
500 nM hANGPTL3 peptide Bound (RU),Binder,binding result
0,B1,no binding (tested: <9 RU at 500 nM peptide)
-1,B2,
0,B3,no binding (tested: <9 RU at 500 nM peptide)
0,B4,no binding (tested: <9 RU at 500 nM peptide)
0,B5,no binding (tested: <9 RU at 500 nM peptide)

# Target: T2, human ANGPTL8 peptide (hANGPTL8 …)
# Assay: SPR, captured mAb, 500 nM peptide, 25C
# Protocol: as §1, §2
500 nM hANGPTL8 peptide Bound (RU),koff [s⁻¹],t½ [h],Binder,binding result
0,,,B1,no binding (tested: <9 RU at 500 nM peptide)
0,,,B2,no binding (tested: <9 RU at 500 nM peptide)
61,8.29e-05,2.32,B3,
0,,,B4,no binding (tested: <9 RU at 500 nM peptide)
0,,,B5,no binding (tested: <9 RU at 500 nM peptide)

# Target: T3, peptide from the N-terminal coiled-coil …
# Assay: SPR, captured mAb, 500 nM peptide, 25C
# Protocol: as §1, §2
500 nM hAngPTL4 peptide Bound (RU),Binder,binding result
0,B1,no binding (tested: <9 RU at 500 nM peptide)
0,B2,no binding (tested: <9 RU at 500 nM peptide)
0,B3,no binding (tested: <9 RU at 500 nM peptide)
0,B4,no binding (tested: <9 RU at 500 nM peptide)
1,B5,no binding (tested: <9 RU at 500 nM peptide)

# Target: T6, anti-mFc (AMC) Octet biosensor, blank
# T6 construct: Sensor without captured protein, used as blank; also called Blank AMC Sensor
# Assay: BLI Octet, blank AMC sensor, 100 nM mAb, 25C
# Protocol: (§3) Binding of ANGPTL8 antibodies to human and monkey ANGPTL8 proteins was investigated using Bio-layer Interferometry with an Octet HTX biosensor platform (ForteBio, A Division of Pall Life Sciences). All experiments were performed at 25° C. in 10 mM HEPES pH 7.4, 150 mM NaCl, 0.05% v/v Surfactant Tween-20, and 1 mg/ml BSA with the reaction multiwell plate agitated at 1000 rpm. Approximately 1.6 nm of human ANGPTL8 produced with a C-terminal mouse IgG2a Fc tag (hANGPTL8-mFc; SEQ ID NO: 340) or cynomolgus monkey ANGPTL8 produced with a C-terminal mouse IgG2a Fc tag (MfANGPTL8-mFc; SEQ ID NO: 341) was captured onto anti-mFc (AMC) Octet biosensors by submerging the sensors into wells containing 10 μg/mL of each protein for 4 minutes. Under the same conditions a negative control protein with the same mFc tag (hLDLR-mFc) was also coupled to the AMC sensor. All four sensors, […] and one blank, were then submerged into wells containing 100 nM of different ANGPTL8 monoclonal antibodies or an isotype control for 4 minutes.
row,mAb Binding Response (nm),Binder
1,0.01,B1
2,0.01,B2
3,0,B3
4,0.01,B4
5,0.03,B5

# Target: T4, human ANGPTL8 expressed with C-terminal …
# Assay: BLI Octet, captured antigen, 100 nM mAb, 25C; background 0.03 nm
# Protocol: as §3
row,"binding signal, fold above background [fold]",Binder
1,≥ 10,B2
2,≥ 10,B3
3,≥ 10,B4

# Target: T4, human ANGPTL8 expressed with C-terminal …
# Assay: BLI Octet, captured antigen, 100 nM mAb, 25C
# Protocol: as §3
row,mAb Binding Response (nm),Binder
1,0.14,B1
2,0.34,B2
3,0.36,B3
4,0.39,B4
5,0.05,B5

# Target: T7, negative control protein with the same mFc tag (hLDLR-mFc) (human; mouse, UniProt P01130 22-788, limits assumed)
# T7 construct: also called Irrelevant control; not shown: mouse IgG2a Fc tag (same mFc tag as hANGPTL8-mFc)
# Assay: BLI Octet, captured antigen, 100 nM mAb, 25C
# Protocol: as §3
# T7 sequence (P01130 22-788 limits assumed): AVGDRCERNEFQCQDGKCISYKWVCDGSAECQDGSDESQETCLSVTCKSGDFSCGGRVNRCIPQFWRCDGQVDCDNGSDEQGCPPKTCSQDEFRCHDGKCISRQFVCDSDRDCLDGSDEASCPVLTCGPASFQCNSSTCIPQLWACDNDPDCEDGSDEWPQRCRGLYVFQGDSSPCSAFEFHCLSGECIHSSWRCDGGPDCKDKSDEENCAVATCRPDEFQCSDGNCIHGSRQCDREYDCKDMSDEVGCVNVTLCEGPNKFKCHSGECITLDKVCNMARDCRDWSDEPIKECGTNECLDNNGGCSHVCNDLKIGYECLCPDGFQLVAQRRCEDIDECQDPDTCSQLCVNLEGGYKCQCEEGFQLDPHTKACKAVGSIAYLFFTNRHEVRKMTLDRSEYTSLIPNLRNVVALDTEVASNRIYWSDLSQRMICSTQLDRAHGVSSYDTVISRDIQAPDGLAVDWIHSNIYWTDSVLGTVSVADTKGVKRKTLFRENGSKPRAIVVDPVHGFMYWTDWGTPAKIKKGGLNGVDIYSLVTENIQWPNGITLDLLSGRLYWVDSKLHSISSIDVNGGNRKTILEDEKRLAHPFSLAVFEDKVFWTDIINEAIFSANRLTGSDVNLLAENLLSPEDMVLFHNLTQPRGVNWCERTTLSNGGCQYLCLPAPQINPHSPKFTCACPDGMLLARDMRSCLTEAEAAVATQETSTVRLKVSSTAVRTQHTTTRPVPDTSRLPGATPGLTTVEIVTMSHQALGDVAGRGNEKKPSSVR
row,mAb Binding Response (nm),Binder
1,0,B1
2,0.02,B2
3,0.01,B3
4,0,B5

# Target: T5, monkey ANGPTL8 expressed with …
# Assay: BLI Octet, captured antigen, 100 nM mAb, 25C
# Protocol: as §3
row,mAb Binding Response (nm),Binder
1,0.17,B1
2,0.39,B2
3,0.51,B3
4,0.36,B4
5,0.01,B5
